# Test results: the supplement of paper PMC7877785
# ± gives the uncertainty stated by the source.
# Assay: self-splicing fitness, log relative to wild type (ln ratio); higher = more splicing; Tetrahymena group I intron in knt gene, E. coli kanamycin selection, DiMSum; sequences stand for … in CUCUCU…GGAGGGAAAAGUUAUCAGGCAUGCACCUGGUAGCUAGUCUUUAAACCAAUAGAUUGCAUCGGUUUAAAAGGCAAGACCGUCAAAUUGCGGGAAAGGGGUCAACAGCCGUUCAGUACCAAGUCUCAGGGGAAACUUUGAGAUGGCCUUGCAAAGGGUAUGGUAAUAAGCUGACGGACAUGGUCCUAACCACGCAGCCAAGUCCUAAGUCAACAGAUCUUCUGUUGAUAUGGAUGCAGUUCACAGACUAAAUGUCGGUCGGGGAAGAUGUAUUCUUCUCAUAAGAUAUAGUCGGACCUCUCCUUAAUGGGAGCUAGCGGAUGAAGUGAUGCAACACUGGAGCCGCUGGGAACUAAUUUGUAUGCGAAAGUAUAUUGAUUAGUUUUGGAGUACUCGUGGUCG
# How it was run: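 Library with all eight P1ex-region intron nucleotides randomised, intron inside the knt kanamycin-resistance gene on pET-22b(+), in E. coli BL21(DE3). Cells grew overnight at 37°C or 30°C on LB agar with or without 25 μg/mL kanamycin (plus 100 μg/mL carbenicillin, 50 μM IPTG, 0.2% rhamnose), in six replicate transformations. Pooled colonies were amplicon-sequenced on Illumina HiSeq 2500. DiMSum fitness is the error-weighted combination of wild-type-normalised replicate fold changes, kanamycin versus none.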
Sequence,self-splicing fitness (ln) (30 °C),self-splicing fitness (ln) (37 °C)
CGCAAGCAAUAUUACGCUUG,-2.74 ± 0.2,-1.87 ± 0.21
CGCAAGCAAUAUUACGCUUU,-3.44 ± 0.21,-2.34 ± 0.21
CGCAAGCAAUAUUACGGAUC,-2 ± 0.19,-2.21 ± 0.18
CGCAAGCAAUAUUACGGAUG,-1.2 ± 0.062,-0.889 ± 0.073
CGCAAGCAAUAUUACGGCAA,-1.41 ± 0.1,-0.0385 ± 0.081
CGCAAGCAAUAUUACGGCAG,-0.448 ± 0.072,-0.305 ± 0.1
CGCAAGCAAUAUUACGGUAA,-3.47 ± 0.16,-1.67 ± 0.1
CGCAAGCAAUAUUACGGUCU,-0.969 ± 0.066,-0.898 ± 0.081
CGCAAGCAAUAUUACGUACG,-2.03 ± 0.086,-0.768 ± 0.1
CGCAAGCAAUAUUACGUGAA,-2.5 ± 0.11,-1.08 ± 0.11
CGCAAGCAAUAUUACGUGAU,-4.09 ± 0.16,-1.63 ± 0.11
CGCAAGCAAUAUUACGUGUA,-2.88 ± 0.13,-0.494 ± 0.1
CGCAAGCAAUAUUACGUUAG,-1.15 ± 0.073,-1.42 ± 0.1
CGCCAGCAAUAUUACGAAUU,-4.49 ± 0.27,-1.46 ± 0.17
CGCCAGCAAUAUUACGAGAU,-3.69 ± 0.18,-2.04 ± 0.17
CGCCAGCAAUAUUACGAUAG,0.428 ± 0.062,0.155 ± 0.081
CGCCAGCAAUAUUACGCAAU,-4.2 ± 0.21,-2.63 ± 0.22
CGCCAGCAAUAUUACGCAUC,-3.71 ± 0.16,-2.74 ± 0.17
CGCCAGCAAUAUUACGCAUU,-3.11 ± 0.25,-2.01 ± 0.18
CGCCAGCAAUAUUACGCCAA,-1.59 ± 0.23,-2.02 ± 0.46
CGCCAGCAAUAUUACGCCAC,–,-1.48 ± 0.2
CGCCAGCAAUAUUACGCCGU,-2.59 ± 0.15,-1.71 ± 0.17
CGCCAGCAAUAUUACGCGCU,-3.54 ± 0.15,-2.52 ± 0.15
CGCCAGCAAUAUUACGCUGC,-4.16 ± 0.41,-2.24 ± 0.28
CGCCAGCAAUAUUACGGAAU,-2.95 ± 0.2,-2.05 ± 0.21

Sequence,self-splicing fitness (ln) (30 °C),self-splicing fitness (ln) (37 °C)
CGCCAGCAAUAUUACGGAGA,–,-2.4 ± 0.24
CGCCAGCAAUAUUACGGCUU,-0.48 ± 0.07,-0.347 ± 0.08
CGCCAGCAAUAUUACGGGAC,–,-2.48 ± 0.24
CGCCAGCAAUAUUACGGUAG,-2.51 ± 0.11,-2.03 ± 0.18
CGCCAGCAAUAUUACGGUUU,-0.936 ± 0.056,-0.589 ± 0.059
CGCCAGCAAUAUUACGUGCU,-3.27 ± 0.2,-3.23 ± 0.33
CGCCAGCAAUAUUACGUGUG,-2.82 ± 0.094,-1.81 ± 0.11
CGCCAGCAAUAUUACGUUAG,-0.475 ± 0.074,0.385 ± 0.099
CGCCAGCAAUAUUACGUUCA,-2.8 ± 0.12,-1.86 ± 0.11
CGCCAGCAAUAUUACGUUGG,-2.64 ± 0.14,-2.68 ± 0.24
CGCGAGCAAUAUUACGAAGG,-2.81 ± 0.24,-2.64 ± 0.27
CGCGAGCAAUAUUACGAAUU,-3.16 ± 0.27,-2.03 ± 0.21
CGCGAGCAAUAUUACGACUU,–,-1.2 ± 0.47
CGCGAGCAAUAUUACGAUAG,-1.05 ± 0.13,-0.593 ± 0.16
CGCGAGCAAUAUUACGCAUU,-2.71 ± 0.18,-3.29 ± 0.35
CGCGAGCAAUAUUACGCGCC,-1.37 ± 0.28,-1.66 ± 0.48
CGCGAGCAAUAUUACGCGCU,–,-1.67 ± 0.32
CGCGAGCAAUAUUACGGAAC,-3.86 ± 0.22,-2.43 ± 0.29
CGCGAGCAAUAUUACGGAGG,-3.29 ± 0.22,-1.41 ± 0.19
CGCGAGCAAUAUUACGGGAA,-3.74 ± 0.27,-2.4 ± 0.29
CGCGAGCAAUAUUACGGGCU,-3.12 ± 0.21,-1.17 ± 0.24
CGCGAGCAAUAUUACGGGUU,-3.62 ± 0.2,-2.44 ± 0.2
CGCGAGCAAUAUUACGGUAU,-3.65 ± 0.34,-2.81 ± 0.34
CGCGAGCAAUAUUACGUCAU,-2.66 ± 0.23,-1.97 ± 0.33
CGCGAGCAAUAUUACGUUCU,-3.71 ± 0.28,-2.76 ± 0.38

Sequence,self-splicing fitness (ln) (30 °C),self-splicing fitness (ln) (37 °C)
CGCUAGCAAUAUUACGAAGC,-1.15 ± 0.37,–
CGCUAGCAAUAUUACGACCU,-1.72 ± 0.19,-1.62 ± 0.18
CGCUAGCAAUAUUACGACGC,–,-1.92 ± 0.17
CGCUAGCAAUAUUACGAGCA,-0.28 ± 0.098,0.344 ± 0.12
CGCUAGCAAUAUUACGAGCU,-0.561 ± 0.11,-0.7 ± 0.11
CGCUAGCAAUAUUACGAGGC,-3.54 ± 0.2,-2.95 ± 0.23
CGCUAGCAAUAUUACGAUUA,-3.34 ± 0.35,-2.73 ± 0.31
CGCUAGCAAUAUUACGCAAG,-3.76 ± 0.32,-2.49 ± 0.33
CGCUAGCAAUAUUACGCAGA,-3.28 ± 0.45,-2.38 ± 0.36
CGCUAGCAAUAUUACGCCCA,-0.642 ± 0.11,-0.0477 ± 0.14
CGCUAGCAAUAUUACGGAAA,-2.34 ± 0.41,-1.49 ± 0.33
CGCUAGCAAUAUUACGGACG,-2.4 ± 0.17,-0.45 ± 0.17
CGCUAGCAAUAUUACGGAUU,-3 ± 0.23,-1.52 ± 0.2
CGCUAGCAAUAUUACGGCAA,-0.889 ± 0.099,-0.0297 ± 0.11
CGCUAGCAAUAUUACGGCGA,-2.76 ± 0.28,-2.3 ± 0.24
CGCUAGCAAUAUUACGGCGU,-4.23 ± 0.42,-2.71 ± 0.21
CGCUAGCAAUAUUACGGGGU,-3.83 ± 0.21,-3.12 ± 0.21
CGCUAGCAAUAUUACGGGUU,-2.73 ± 0.082,-2.04 ± 0.11
CGCUAGCAAUAUUACGGUCG,-2.53 ± 0.1,-2.03 ± 0.13
CGCUAGCAAUAUUACGUAUA,-3.36 ± 0.15,-2.55 ± 0.16
CGCUAGCAAUAUUACGUCCC,-2.63 ± 0.16,-1.54 ± 0.19
CGCUAGCAAUAUUACGUGAG,-3.88 ± 0.33,-1.64 ± 0.14
CGCUAGCAAUAUUACGUGAU,-2.34 ± 0.12,-3.44 ± 0.25
CGCUAGCAAUAUUACGUGGA,-3.16 ± 0.2,-2.33 ± 0.18
CGCUAGCAAUAUUACGUGGC,-2.89 ± 0.2,-2.72 ± 0.2

Sequence,self-splicing fitness (ln) (30 °C),self-splicing fitness (ln) (37 °C)
CGCUAGCAAUAUUACGUGUG,-4.15 ± 0.27,-3.12 ± 0.19
CGCUAGCAAUAUUACGUUAG,-3.47 ± 0.18,-2.89 ± 0.24
CGCUAGCAAUAUUACGUUGA,-3.06 ± 0.17,-2.38 ± 0.14
CGCUAGCAAUAUUACGUUGC,-3.3 ± 0.33,-2.98 ± 0.29
CGGAAGCAAUAUUACGACUC,-0.372 ± 0.081,-1.1 ± 0.08
CGGAAGCAAUAUUACGAGUA,–,-2.86 ± 0.29
CGGAAGCAAUAUUACGAUGC,–,-2.78 ± 0.36
CGGAAGCAAUAUUACGAUUG,-0.86 ± 0.073,-0.25 ± 0.095
CGGAAGCAAUAUUACGAUUU,-3.62 ± 0.2,-1.51 ± 0.15
CGGAAGCAAUAUUACGCAAA,–,-2.55 ± 0.33
CGGAAGCAAUAUUACGCAAC,-1.88 ± 0.29,–
CGGAAGCAAUAUUACGCACG,–,0.981 ± 0.23
CGGAAGCAAUAUUACGCAGG,-1.73 ± 0.095,-1.57 ± 0.11
CGGAAGCAAUAUUACGCCAA,-2.25 ± 0.39,-2.08 ± 0.4
CGGAAGCAAUAUUACGCCAG,-0.858 ± 0.27,-0.336 ± 0.26
CGGAAGCAAUAUUACGCGAG,-1.19 ± 0.15,-1.24 ± 0.27
CGGAAGCAAUAUUACGCGCC,–,-0.393 ± 0.27
CGGAAGCAAUAUUACGCGGU,-3.98 ± 0.29,-2.73 ± 0.22
CGGAAGCAAUAUUACGCGUC,-2.62 ± 0.14,-3.1 ± 0.37
CGGAAGCAAUAUUACGCGUG,-1.54 ± 0.16,-0.867 ± 0.17
CGGAAGCAAUAUUACGCGUU,-3.9 ± 0.34,-2.9 ± 0.33
CGGAAGCAAUAUUACGCUGA,–,-1.21 ± 0.26
CGGAAGCAAUAUUACGGCAG,-0.0767 ± 0.11,0.445 ± 0.13
CGGAAGCAAUAUUACGGCGG,-0.184 ± 0.1,0.177 ± 0.13
